The numbers were not newly measured in article PMC6557524, which cites them from elsewhere.

In the data set the target is CCR2 (UniProt P41597).
UniProt P41597, sequence (P41597 whole entry): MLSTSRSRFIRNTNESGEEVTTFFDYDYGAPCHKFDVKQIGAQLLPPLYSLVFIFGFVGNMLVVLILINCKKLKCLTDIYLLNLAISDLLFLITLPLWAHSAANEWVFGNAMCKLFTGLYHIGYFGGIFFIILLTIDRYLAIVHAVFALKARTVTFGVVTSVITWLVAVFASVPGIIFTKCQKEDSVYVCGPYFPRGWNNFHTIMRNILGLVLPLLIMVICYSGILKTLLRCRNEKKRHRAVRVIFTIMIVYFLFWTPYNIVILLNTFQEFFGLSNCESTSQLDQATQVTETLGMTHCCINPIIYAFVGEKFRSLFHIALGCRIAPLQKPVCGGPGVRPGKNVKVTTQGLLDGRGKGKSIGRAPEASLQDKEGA

In the case of CCL2 (from UniProt P13500), the Kd is 2.1 nM.

In general, Kd refers to the free concentration of one partner at which half of the binding sites on the other are occupied at equilibrium, for simple one-to-one binding.
